Experimental data: publication PMC4052849 (2014)

Molecular target: T1, DS-SILY20 (decorin mimic, SILY peptide-dermatan sulfate conjugate) (about 20 SILY peptides conjugated via BMPH to dermatan sulfate)
T1 chain: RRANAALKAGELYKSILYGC
Experiment: solid-phase binding assay

- Kd: 0.0551 µM
B1: IFN-γ (protein)
chain: QDPYVKEAENLKKYFNAGHSDVADNGTLFLGILKNWKEESDRKIMQSQIVSFYFKLFKNFKDDQSIQKSVETIKEDMNVKFFNSNKKKRDDFEKLTNYSVTDLNVQRKAIHELIQVMAELSPAAKTGKRKRSQMLFRG
